Target: wild-type SARS-CoV-2 Spike receptor-binding domain (SARS-CoV-2, UniProt P0DTC2 319-527)
Experiment: SPR

CPWNAYECDRHCVSKGYTGGNCRGKIRQTCHCY [(ΔGFG)AMSIN]
koff: 0.0223 s⁻¹

Source: PMC10315472 (2023)
